What was measured:
[1] = biological target: T1, MukB (wild type, MukB-His) (Escherichia coli, UniProt P22523 1-1486); assay: native MS; mixtures of MukB, MukE, MukF and AcpP at various concentrations of MukB; 200 mM ammonium acetate pH 8.0; details: both partners purified
T1 construct: MukB, the SMC protein of Escherichia coli MukBEF; wild type; The end of the tag is read from the printed name 'MukB-His'; The same construct was used with co-purified AcpP or depleted of AcpP by an extended salt gradient on heparin; also called WT MukB; AcpP-depleted MukB; source: E. coli C3013I (NEB), pET vector, purified (TALON, HiTrap Heparin, Superdex 200); not shown: His tag, C-terminal, kept
T1 sequence (looked up): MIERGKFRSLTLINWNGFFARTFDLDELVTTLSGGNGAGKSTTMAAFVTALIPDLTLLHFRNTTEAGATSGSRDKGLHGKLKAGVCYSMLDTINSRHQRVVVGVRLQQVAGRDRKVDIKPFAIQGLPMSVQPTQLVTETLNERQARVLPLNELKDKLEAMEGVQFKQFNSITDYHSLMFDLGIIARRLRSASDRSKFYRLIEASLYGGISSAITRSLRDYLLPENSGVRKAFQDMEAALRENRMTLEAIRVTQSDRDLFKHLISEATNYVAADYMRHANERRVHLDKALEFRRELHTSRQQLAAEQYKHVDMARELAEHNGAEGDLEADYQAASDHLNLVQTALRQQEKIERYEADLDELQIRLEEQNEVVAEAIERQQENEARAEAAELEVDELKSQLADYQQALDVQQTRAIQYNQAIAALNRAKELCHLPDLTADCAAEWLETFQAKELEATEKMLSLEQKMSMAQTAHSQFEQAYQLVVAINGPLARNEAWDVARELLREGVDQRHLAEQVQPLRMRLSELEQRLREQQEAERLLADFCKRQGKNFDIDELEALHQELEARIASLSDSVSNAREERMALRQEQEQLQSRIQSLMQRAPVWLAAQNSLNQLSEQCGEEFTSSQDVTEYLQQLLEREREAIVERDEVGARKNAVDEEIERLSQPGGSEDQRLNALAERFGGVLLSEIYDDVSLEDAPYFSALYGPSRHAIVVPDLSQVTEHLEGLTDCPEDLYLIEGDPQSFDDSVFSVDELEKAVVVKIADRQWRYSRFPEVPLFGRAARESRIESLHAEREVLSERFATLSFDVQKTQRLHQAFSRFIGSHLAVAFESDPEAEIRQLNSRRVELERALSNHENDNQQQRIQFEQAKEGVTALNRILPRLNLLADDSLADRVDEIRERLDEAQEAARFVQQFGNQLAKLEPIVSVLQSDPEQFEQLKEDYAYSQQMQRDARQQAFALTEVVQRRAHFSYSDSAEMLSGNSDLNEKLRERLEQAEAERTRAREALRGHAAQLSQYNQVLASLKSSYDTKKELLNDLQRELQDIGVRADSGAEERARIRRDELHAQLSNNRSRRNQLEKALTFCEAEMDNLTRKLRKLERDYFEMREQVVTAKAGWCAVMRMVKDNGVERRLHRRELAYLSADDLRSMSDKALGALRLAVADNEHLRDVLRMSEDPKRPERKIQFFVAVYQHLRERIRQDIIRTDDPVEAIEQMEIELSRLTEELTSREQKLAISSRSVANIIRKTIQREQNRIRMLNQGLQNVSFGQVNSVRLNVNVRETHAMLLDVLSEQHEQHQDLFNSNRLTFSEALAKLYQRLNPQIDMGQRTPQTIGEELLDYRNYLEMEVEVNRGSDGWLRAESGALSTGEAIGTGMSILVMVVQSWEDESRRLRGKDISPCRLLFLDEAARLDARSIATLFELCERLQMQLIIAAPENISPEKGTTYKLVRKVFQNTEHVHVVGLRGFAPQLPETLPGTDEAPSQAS

[2] = biological target: the molecule itself; assay: as above

B1: MukF (His-MukF) (natural protein, Escherichia coli, UniProt P60293 1-440, looked up)
chain: MSEFSQTVPELVAWARKNDFSISLPVDRLSFLLAVATLNGERLDGEMSEGELVDAFRHVSDAFEQTSETIGVRANNAINDMVRQRLLNRFTSEQAEGNAIYRLTPLGIGITDYYIRQREFSTLRLSMQLSIVAGELKRAADAAEEGGDEFHWHRNVYAPLKYSVAEIFDSIDLTQRLMDEQQQQVKDDIAQLLNKDWRAAISSCELLLSETSGTLRELQDTLEAAGDKLQANLLRIQDATMTHDDLHFVDRLVFDLQSKLDRIISWGQQSIDLWIGYDRHVHKFIRTAIDMDKNRVFAQRLRQSVQTYFDEPWALTYANADRLLDMRDEEMALRDEEVTGELPEDLEYEEFNEIREQLAAIIEEQLAVYKTRQVPLDLGLVVREYLSQYPRARHFDVARIVIDQAVRLGVAQADFTGLPAKWQPINDYGAKVQAHVIDKY
notes: MukF, the kleisin of Escherichia coli MukBEF; The end of the tag is read from the printed name 'His-MukF'; also called kleisin MukF; source: E. coli C3013I (NEB), pET vector, purified (TALON, HiTrap DEAE FF, Superdex 200)
binding result [1]: binds | binding result [2]: binds

B2: MukE (MukE-His) (natural protein, Escherichia coli, UniProt P22524 1-234, looked up)
chain: MSSTNIEQVMPVKLAQALANPLFPALDSALRSGRHIGLDELDNHAFLMDFQEYLEEFYARYNVELIRAPEGFFYLRPRSTTLIPRSVLSELDMMVGKILCYLYLSPERLANEGIFTQQELYDELLTLADEAKLLKLVNNRSTGSDVDRQKLQEKVRSSLNRLRRLGMVWFMGHDSSKFRITESVFRFGADVRAGDDPREAQRRLIRDGEAMPIENHLQLNDETEENQPDSGEEE
notes: MukE, the KITE protein of Escherichia coli MukBEF; The end of the tag is read from the printed name 'MukE-His'; also called KITE protein MukE; source: E. coli C3013I (NEB), pET vector, purified (TALON, HiTrap DEAE FF, Superdex 200)
binding result [1]: binds
